{
  "source": "paper PMC5371579",
  "about": "“Expression of a new laccase from Moniliophthora roreri at high levels in Pichia pastoris and its potential application in micropollutant degradation” (AMB Express, 2017)",
  "proteins": {"B1": {"name": "Mrl2 (Moniliophthora roreri MCA 2997) (protein)", "chain": "SIGPIADLVISNQDVSPDGFTRSAVVAGGDTIGPLIVGNKNDNLQINVVNNLDDDTMLQSTSIHWHGFFQQSTNWADGTAFVNQCPIAKGNSFLYDFDATDQAGTFWYHSHLSTQYCDGLRGPIVIYDPDDPHASLYDVDDESTVITLADWYHTKAKEITFGTPDSTLINGLGRWSQGNETDLSVITVTSGQRYRMRLINTACDAAYTFSIDNHTMTVIEADAVNIEPIEVDSLTIYAGQRYSFVLNADQAVGNYWIRANPNIGTMGYTNGINSAILRYDTAEEEEPDVLDITSTNSLSEADLVPLENPGAPGDPVVGGVDYALHLDFAFTSAATFTVNDATFVPPTVPVLLQILSGAQTADTLLPSGSVVALPSNSTIELSMTGGLLGLEHPIHLHGHNFDVVRVAGSTEYNYENPIRRDVVNAGSTSDNVTIRFTTDNPGPWILHCHIDWHLEAGFAIVFAEATDEWVDTIDPSDAWENLCPTYDALSDDDL", "notes": "native signal peptide replaced by S. cerevisiae alpha-factor leader (Kex2 cleavage; mature N-terminus SIGPI from primer); no tag (stop codon in reverse primer); codon-optimized gene; secreted from Pichia pastoris X-33, DEAE-purified, glycosylated (~90 kDa; calculated 54 kDa); EC 1.10.3.2"}},
  "test_in_all_cases": "purified protein",
  "assay_type_in_all_cases": "biochemical, Moniliophthora roreri",
  "key": {"purified protein [1]": {"substrate": "CCn1c(=NN=c2sc3cc(S(=O)(=O)O)ccc3n2CC)sc2cc(S(=O)(=O)O)ccc21", "conditions": "100 mM citrate phosphate buffer at optimal pH (pH 2 stated for ABTS)"}, "purified protein [2]": {"substrate": "COc1cc(C=NN=Cc2cc(OC)c(O)c(OC)c2)cc(OC)c1O", "conditions": "100 mM citrate phosphate buffer, pH 4 (optimum)"}, "purified protein [3]": {"substrate": "COc1cccc(OC)c1O", "conditions": "100 mM citrate phosphate buffer, pH 4 (optimum)"}, "purified protein [4]": {"substrate": "COc1ccccc1O", "conditions": "100 mM citrate phosphate buffer, pH 5 (optimum)"}},
  "data": [
    {"protein": "B1", "values": [
      {"measurement": "Km", "setting": "purified protein [1]", "value": "24.13 ± 1.9", "unit": "µM"},
      {"measurement": "kcat", "setting": "purified protein [1]", "value": 316, "unit": "s⁻¹"},
      {"measurement": "kcat/Km", "setting": "purified protein [1]", "value": "1.31e+07", "unit": "M⁻¹ s⁻¹"},
      {"measurement": "Km", "setting": "purified protein [2]", "value": "12.45 ± 1.6", "unit": "µM"},
      {"measurement": "kcat", "setting": "purified protein [2]", "value": 21, "unit": "s⁻¹"},
      {"measurement": "kcat/Km", "setting": "purified protein [2]", "value": "1.68e+06", "unit": "M⁻¹ s⁻¹"},
      {"measurement": "Km", "setting": "purified protein [3]", "value": "358 ± 58.5", "unit": "µM"},
      {"measurement": "kcat", "setting": "purified protein [3]", "value": 74, "unit": "s⁻¹"},
      {"measurement": "kcat/Km", "setting": "purified protein [3]", "value": 207000, "unit": "M⁻¹ s⁻¹"},
      {"measurement": "Km", "setting": "purified protein [4]", "value": "2235 ± 117.5", "unit": "µM"},
      {"measurement": "kcat", "setting": "purified protein [4]", "value": 37, "unit": "s⁻¹"},
      {"measurement": "kcat/Km", "setting": "purified protein [4]", "value": 16000, "unit": "M⁻¹ s⁻¹"}
    ]}
  ]
}
